In article PMC5167779:

Key:
[1] = target: XfYgiT, antitoxin of the toxin-antitoxin system of Xylella fastidiosa subsp. pauca strain 9a5c (Xylella fastidiosa subsp. pauca strain 9a5c); experiment: SEC
[2] = target: XfYgiT, antitoxin of the toxin-antitoxin system of Xylella fastidiosa subsp. pauca strain 9a5c (Xylella fastidiosa subsp. pauca strain 9a5c); experiment: AUC
[3] = target: XfYgiT, antitoxin of the toxin-antitoxin system of Xylella fastidiosa subsp. pauca strain 9a5c (Xylella fastidiosa subsp. pauca strain 9a5c); experiment: ITC
[4] = target: XfYgiT, antitoxin of the toxin-antitoxin system of Xylella fastidiosa subsp. pauca strain 9a5c (Xylella fastidiosa subsp. pauca strain 9a5c); experiment: SEC; […], sodium phosphate buffer ([…]

Substance | stoichiometry N (mol/mol (printed as 1:1)) [1] | stoichiometry N (mol/mol (printed as 2:2)) [2] | dH [3] [kcal/mol] | stoichiometry N (mol/mol (printed as 1:1)) [3] | stoichiometry N [2] | stoichiometry N [4]
XfMqsR, toxin of the toxin-antitoxin system of Xylella fastidiosa subsp. pauca strain 9a5c (natural protein) | 1 | 1 | -8.61 | 1 | – | –
XfYgiT, antitoxin of the toxin-antitoxin system of Xylella fastidiosa subsp. pauca strain 9a5c (natural protein) | – | – | – | – | 2 | 2
